Assay results reported in patent publication CN107043423A (JIANGSU HENGRUI MEDICINE CO; SHANGHAI HENGRUI …, dated 2017).
Positions count from the first letter of the chain named.

Experiments:
带His标签的人凝血酶 [1] = target: T1, 带His标签的人凝血酶 (human, UniProt P00734 328-622); assay: ELISA, biotinylated His-tagged human thrombin on streptavidin plate
带His标签的人凝血酶原 = target: T2, 带His标签的人凝血酶原 (human, UniProt P00734 44-622); assay: BIAcore SPR, antibody captured by anti-human capture antibody on CM5 chip, His-tagged prothrombin in flow
T2 construct: Zymogen precursor of thrombin, expressed in HEK293E; also called h-prothrombin-his; 人Pro凝血酶

带His标签的人凝血酶 [2] = target: T1, 带His标签的人凝血酶; assay: BIAcore SPR, antibody captured by anti-human capture antibody on CM5 chip, His-tagged thrombin in flow

B1: 人源化抗体H1512-8 (antibody, human IgG4 S228P, kappa, V domains shown)
VH: EVQLVESGGGLVQPGGSLRLSCAASGFTVSNYDMSWVRQAPGKGLEWVSMIETDGSIFHASWVNGRFTISRDNSKNTLYLQMNSLRAEDTAVYYCARGSNDYDAYGYPYFTLWGQGTLVTVSS
VL: ELVLTQSSSASASLGSSVKLTCTLSSAHETYTIDWYQQQPGKAPRYLMELKSDGSYNKGAGVPDRFSGSSSGADRYLTISNLQLEDEATYHCGADFSDGYVFGGGTKVEIKR
notes: Humanized antibody
EC50 (带His标签的人凝血酶 [1]): 19.3 nM

B2: 人源化抗体H1512-12 (antibody, human IgG4 S228P, kappa, V domains shown)
VH: B1 VH with V48I, S49G, R71K, L78V, Y94F, A96V
VL: B1 VL with E1Q
notes: Humanized antibody; also called 抗凝血酶抗体H1512-12
EC50 (带His标签的人凝血酶 [1]): 0.16 nM
Kd (带His标签的人凝血酶原): 26.4 nM
Kd (带His标签的人凝血酶 [2]): 2.79 nM

B3: 人源化抗体H1512-1 (antibody, human IgG4 S228P, kappa, V domains shown)
VH: B1 VH
VL: B1 VL with E1Q, L2P, Y36H, E49K, T89D, H91Y
notes: Humanized antibody
EC50 (带His标签的人凝血酶 [1]): 43.4 nM
